Reference: patent US20240360228A1 (BIOLEGEND, published 2024)

Experiments:
[1] = target: T1, human CCR8 (human, UniProt P51685 1-355); test: flow blocking, PBMC CCR8+CD3+; competitor PE-AB8
T1 construct: Native CCR8 on human PBMC (CCR8+ CD3+ or CCR8+ CD4+ lymphocytes); also called chemokine (C-C motif) receptor 8
Method: (§1) For blocking studies, 100 μL of the cell suspension were incubated with 10 μg purified isotype control, AB1, AB2, AB3, AB4, AB5, AB8, AB9, AB10, AB11, AB12, AB13, AB14, AB15, and Commercial ABI antibodies, or isotype control, as blocking agents.
(§2) After incubation with the blocking agent, the cells were incubated with 0.25 μg of the indicated PE-conjugated antibody plus anti-human CD4 APC or anti-human CD3 for another 15 minutes in the dark and then washed 2 times with Cell Staining Buffer, and acquired in a FACSCanto II flow cytometer (BD Biosciences); the data was analyzed using FCS Express (De Novo Software); MFI correspond to the CCR8+ CD4+ lymphocytes or CCR8+ CD3+ lymphocytes.
(§3) Percentage original MFI was calculated by dividing the MFI of samples blocked with AB1, AB2, AB3, AB4, AB5, AB6, AB7, AB8, AB9, AB10, AB11, AB12, AB13, AB14, AB15, and Commercial ABI antibodies, by the MFI of samples blocked with the corresponding isotype control. This value was subtracted from 100 to get a blocking percentage. The formula is shown below: […]

[2] = target: T1, human CCR8; test: flow blocking, PBMC CCR8+CD4+; competitor PE-AB14
Method: as §1, §2

[3] = target: T1, human CCR8; test: flow blocking, PBMC CCR8+CD3+; competitor PE-AB7
Method: as §1, §2, §3

[4] = target: T1, human CCR8; test: flow blocking, PBMC CCR8+CD3+; competitor PE-L263G8
Method: as §1, §2, §3

[5] = target: T1, human CCR8; test: flow blocking, PBMC CCR8+CD3+; competitor PE-433H
Method: as §1, §2, §3

[6] = target: T1, human CCR8; test: flow blocking, PBMC CCR8+CD3+; competitor PE-AB13
Method: as §1, §2, §3

[7] = target: T1, human CCR8; test: flow blocking, PBMC CCR8+CD4+; competitor PE-AB6
Method: as §1, §2

[8] = target: T1, human CCR8; test: flow blocking, PBMC CCR8+CD4+; competitor PE-AB10
Method: as §1, §2, §3

[9] = target: T1, human CCR8; test: flow blocking, PBMC CCR8+CD3+; competitor PE-AB14
Method: as §1, §2, §3

[10] = target: T1, human CCR8; test: flow blocking, PBMC CCR8+CD4+; competitor PE-AB15
Method: as §1, §2, §3

[11] = target: T1, human CCR8; test: flow blocking, PBMC CCR8+CD3+; competitor PE-AB12
Method: as §1, §2, §3

[12] = target: T1, human CCR8; test: flow blocking, PBMC CCR8+CD4+; competitor PE-AB3
Method: as §1, §2, §3

[13] = target: T1, human CCR8; test: flow blocking, PBMC CCR8+CD3+; competitor PE-AB10
Method: as §1, §2, §3

[14] = target: T1, human CCR8; test: flow blocking, PBMC CCR8+CD4+; competitor PE-AB1
Method: as §1, §2, §3

[15] = target: T1, human CCR8; test: flow blocking, PBMC CCR8+CD3+; competitor PE-AB15
Method: as §1, §2, §3

[16] = target: T1, human CCR8; test: flow blocking, PBMC CCR8+CD3+; competitor PE-AB11
Method: as §1, §2, §3

[17] = target: T1, human CCR8; test: flow blocking, PBMC CCR8+CD4+; competitor PE-AB13
Method: as §1, §2

[18] = target: T1, human CCR8; test: flow blocking, PBMC CCR8+CD3+; competitor PE-AB6
Method: as §1, §2, §3

[19] = target: T1, human CCR8; test: flow blocking, PBMC CCR8+CD4+; competitor PE-AB4
Method: as §1, §2, §3

[20] = target: T1, human CCR8; test: flow blocking, PBMC CCR8+CD4+; competitor PE-AB2
Method: as §1, §2, §3

[21] = target: T1, human CCR8; test: flow blocking, PBMC CCR8+CD4+; competitor PE-433H
Method: as §1, §2

[22] = target: T1, human CCR8; test: flow blocking, PBMC CCR8+CD4+; competitor PE-AB5
Method: as §1, §2, §3

[23] = target: T1, human CCR8; test: flow blocking, PBMC CCR8+CD4+; competitor PE-AB12
Method: as §1, §2, §3

[24] = target: T1, human CCR8; test: flow blocking, PBMC CCR8+CD4+; competitor PE-AB11
Method: as §1, §2, §3

[25] = target: T1, human CCR8; test: flow blocking, PBMC CCR8+CD3+; competitor PE-AB5
Method: as §1, §2, §3

T1 sequence (P51685 whole entry): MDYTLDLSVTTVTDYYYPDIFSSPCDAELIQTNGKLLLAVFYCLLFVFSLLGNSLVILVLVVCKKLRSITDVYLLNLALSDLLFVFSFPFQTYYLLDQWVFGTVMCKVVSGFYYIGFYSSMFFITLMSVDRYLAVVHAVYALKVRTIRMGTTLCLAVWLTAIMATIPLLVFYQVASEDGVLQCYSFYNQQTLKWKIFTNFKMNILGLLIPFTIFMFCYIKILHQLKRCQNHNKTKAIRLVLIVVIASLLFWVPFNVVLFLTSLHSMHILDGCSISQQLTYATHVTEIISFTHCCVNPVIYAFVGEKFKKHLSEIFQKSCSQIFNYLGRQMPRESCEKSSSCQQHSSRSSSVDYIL

B1: AB5 (antibody, V domains shown)
VH: QVQLKESGPGLVQPSQTLSLTCTVSGFSLTSYHVSWVRQPPGKGLEWMGVIWTGGSTTYNSLLKSRLSISRDISKSQVFLKMNSLQTEDTATYYCARGGTVVKGGFAYWGQGTLVTVSS
VL: DIQMTQSPASLSASLEEIVTITCQASQDIGNRLSWYQQKPGKSPQLLIYGATSLADGVPSRFSGSRSGTQYSLKISRLQVEDIGIYYCLQAYSTPLTFGSGTKLEIK
notes: Hybridoma monoclonal; Same VH/VL entries as AB6; also called antibody 5; clone 5
[1]
  % Blocking: 5.47%
  MFI: 1120
[2]
  % Blocking: -25.4%
  % Positive cells: 1.63%
[3]
  % Blocking: -3.38%
  MFI: 1210
[4]
  % Blocking: -14.2%
  MFI: 769
[5]
  % Blocking: -5.58%
  MFI: 936
[6]
  % Blocking: -7.01%
  MFI: 947
[7]
  % Blocking: 95.5%
  % Positive cells: 0.09%
[8]
  % Blocking: 5.41%
  % Positive cells: 1.4%
[9]
  % Blocking: 0.46%
  MFI: 860
[10]
  % Blocking: -29.5%
  % Positive cells: 1.67%
[11]
  % Blocking: -11.3%
  MFI: 1140
[12]
  % Blocking: 95.9%
  % Positive cells: 0.07%
[13]
  % Blocking: -20.7%
  MFI: 962
[14]
  % Blocking: 72.3%
  % Positive cells: 0.43%
[15]
  % Blocking: -1.63%
  MFI: 873
[16]
  % Blocking: -9.7%
  MFI: 1020
[17]
  % Blocking: 27.8%
  % Positive cells: 1.43%
[18]
  % Blocking: 37.3%
  MFI: 579
[19]
  % Blocking: 93.3%
  % Positive cells: 0.12%
[20]
  % Blocking: 98.8%
  % Positive cells: 0.02%
[21]
  % Blocking: 12.5%
  % Positive cells: 1.54%
[22]
  % Blocking: 91.1%
  % Positive cells: 0.18%
[23]
  % Blocking: 0%
  % Positive cells: 1.8%
[24]
  % Blocking: -6.12%
  % Positive cells: 2.08%
[25]
  % Blocking: 14.8%
  MFI: 840

B2: AB2 (antibody, V domains shown)
VH: QVQLKESGPGLVKPSETLSLTCTVSGFSLTSYHISWVRQPPGKGLEWMGVIWGDGSKTYNSALKSRLSISRDTSKSQVFLKMRSLKTEDTATYYCARGGDSGFAYWGQGTLVTVSS
VL: DIQMTQSPASLSASLEEIVTITCQASQDIGNWLSWYQQKPGKSPQLLIYGTTNLADGVPSRFSGSRSGTQYSLKISRLQVEDIGIYYCLQAYSVPLTFGSGTKLEIK
notes: Hybridoma monoclonal; Same VH/VL entries as AB1; also called antibody 2; clone 2
[2]
  % Blocking: -15.4%
  % Positive cells: 1.5%
[7]
  % Blocking: 93.6%
  % Positive cells: 0.13%
[8]
  % Blocking: 2.7%
  % Positive cells: 1.44%
[10]
  % Blocking: -18.6%
  % Positive cells: 1.53%
[12]
  % Blocking: 98.2%
  % Positive cells: 0.03%
[14]
  % Blocking: 93.5%
  % Positive cells: 0.1%
[17]
  % Blocking: -6.06%
  % Positive cells: 2.1%
[19]
  % Blocking: 96.6%
  % Positive cells: 0.06%
[20]
  % Blocking: 98.8%
  % Positive cells: 0.02%
[21]
  % Blocking: 2.84%
  % Positive cells: 1.71%
[22]
  % Blocking: 90.1%
  % Positive cells: 0.2%
[23]
  % Blocking: -8.89%
  % Positive cells: 1.96%
[24]
  % Blocking: -3.57%
  % Positive cells: 2.03%

B3: AB6 (antibody, V domains shown)
VH: QVQLKESGPGLVQPSQTLSLTCTVSGFSLTSYHVSWVRQPPGKGLEWMGVIWTGGSTTYNSLLKSRLSISRDISKSQVFLKMNSLQTEDTATYYCARGGTVVKGGFAYWGQGTLVTVSS
VL: DIQMTQSPASLSASLEEIVTITCQASQDIGNRLSWYQQKPGKSPQLLIYGATSLADGVPSRFSGSRSGTQYSLKISRLQVEDIGIYYCLQAYSTPLTFGSGTKLEIK
notes: Hybridoma monoclonal; Same VH/VL entries as AB5; also called antibody 6; clone 6
[1]
  % Blocking: 33.8%
  MFI: 787
[3]
  % Blocking: 32.7%
  MFI: 786
[4]
  % Blocking: -16.3%
  MFI: 783
[5]
  % Blocking: 10.7%
  MFI: 792
[6]
  % Blocking: 2.54%
  MFI: 862
[9]
  % Blocking: 3.88%
  MFI: 831
[11]
  % Blocking: -3.13%
  MFI: 1050
[13]
  % Blocking: -11.6%
  MFI: 890
[15]
  % Blocking: 13.3%
  MFI: 745
[16]
  % Blocking: -18.3%
  MFI: 1100
[18]
  % Blocking: -4.93%
  MFI: 969
[25]
  % Blocking: 0.71%
  MFI: 979

B4: AB7 (antibody, V domains shown)
VH: AVQLVESGGGLVQPKESLKISCAASGFTFSYAAMYWVRQTPGKGLEWVARIRTKPNNYATYYADSVKGRFTISRDDSKSMVYLQMDNLKSEDTAMYYCNIMGITRGYYFDYWGQGVMVTVSS
VL: DIQMTQSPSFLSASVGDRVTINCKASQNINRYLNWYQQQLGEAPKLLIYNANNLQTGIPSRFSGSRSGTDFTLTISSLQPEDVATYFCLQHNSWPWTFGGGTKLELK
notes: Hybridoma monoclonal; also called antibody 7; clone 7
[1]
  % Blocking: 26.6%
  MFI: 873
[3]
  % Blocking: 47.3%
  MFI: 616
[4]
  % Blocking: 0.82%
  MFI: 668
[5]
  % Blocking: 45.2%
  MFI: 486
[6]
  % Blocking: -0.34%
  MFI: 888
[9]
  % Blocking: 28.5%
  MFI: 618
[11]
  % Blocking: 49.1%
  MFI: 520
[13]
  % Blocking: 12.2%
  MFI: 700
[15]
  % Blocking: 23.2%
  MFI: 660
[16]
  % Blocking: 53.2%
  MFI: 434
[18]
  % Blocking: -23.2%
  MFI: 1140
[25]
  % Blocking: -6.64%
  MFI: 1050
